Measured values from the Immune Epitope Database (IEDB).

Legend:
HLA-A*24:02 = test: IEDB peptide-MHC binding, purified MHC/competitive/fluorescence; ≥ and ≤ were set here for values at or beyond the usual limits of such assays; conditions: source organism: Zaire ebolavirus
HLA-A*02:01 [1] = test: as above; conditions: source organism: Zaire ebolavirus
HLA-B*15:01 [2] = test: as above
HLA-B*48:01 = test: IEDB peptide-MHC binding, purified MHC/direct/fluorescence; filed as Kd, often an IC50 or EC50 that approximates it; ≥ and ≤ were set here for values at or beyond the usual limits of such assays
HLA-B*39:01 [3] = test: as above
HLA-B*58:01 [4] = test: IEDB peptide-MHC binding, purified MHC/competitive/radioactivity; filed as Kd, often an IC50 or EC50 that approximates it; ≥ and ≤ were set here for values at or beyond the usual limits of such assays
HLA-B*51:01 [5] = test: IEDB peptide-MHC binding, purified MHC/direct/fluorescence; filed as Kd, often an IC50 or EC50 that approximates it; ≥ and ≤ were set here for values at or beyond the usual limits of such assays; conditions: source organism: Escherichia coli O157:H7
HLA-B*07:02 = test: as above
HLA-B*51:01 [6] = test: IEDB peptide-MHC binding, purified MHC/competitive/radioactivity; filed as Kd, often an IC50 or EC50 that approximates it; ≥ and ≤ were set here for values at or beyond the usual limits of such assays; conditions: source organism: Dengue virus 2 Jamaica/1409/1983
HLA-A*68:02 [7] = test: as above; conditions: source organism: Dengue virus 2 Jamaica/1409/1983
HLA-B*35:01 = test: as above; conditions: source organism: Dengue virus 2 Jamaica/1409/1983
HLA-B*53:01 = test: as above; conditions: source organism: Dengue virus 2 Jamaica/1409/1983
HLA-A*29:02 = test: IEDB peptide-MHC binding, purified MHC/competitive/fluorescence; filed as Kd, often an IC50 or EC50 that approximates it; ≥ and ≤ were set here for values at or beyond the usual limits of such assays; conditions: source organism: Giardia lamblia ATCC 50803
HLA-B*18:01 [8] = test: IEDB peptide-MHC binding, purified MHC/competitive/radioactivity; filed as Kd, often an IC50 or EC50 that approximates it; ≥ and ≤ were set here for values at or beyond the usual limits of such assays; conditions: source organism: SARS coronavirus Tor2
HLA-B*40:01 [9] = test: as above; conditions: source organism: SARS coronavirus Tor2
HLA-B*44:02 [10] = test: as above; conditions: source organism: SARS coronavirus Tor2
HLA-B*45:01 = test: as above; conditions: source organism: SARS coronavirus Tor2
HLA-B*40:02 = test: as above; conditions: source organism: SARS coronavirus Tor2
HLA-B*44:03 = test: as above; conditions: source organism: SARS coronavirus Tor2
HLA-A*02:11 = test: IEDB peptide-MHC binding, purified MHC/direct/fluorescence; filed as Kd, often an IC50 or EC50 that approximates it; ≥ and ≤ were set here for values at or beyond the usual limits of such assays; conditions: source organism: Zaire ebolavirus
HLA-A*68:02 [11] = test: as above; conditions: source organism: Zaire ebolavirus
HLA-A*02:19 = test: as above; conditions: source organism: Zaire ebolavirus
HLA-B*58:01 [12] = test: as above
HLA-A*02:16 = test: as above; conditions: source organism: Zaire ebolavirus
HLA-A*02:12 = test: as above; conditions: source organism: Zaire ebolavirus
HLA-A*03:01 = test: as above
HLA-A*02:03 = test: as above; conditions: source organism: Zaire ebolavirus
HLA-B*18:01 [13] = test: IEDB peptide-MHC binding, purified MHC/competitive/fluorescence; filed as Kd, often an IC50 or EC50 that approximates it; ≥ and ≤ were set here for values at or beyond the usual limits of such assays; conditions: source organism: Zaire ebolavirus
HLA-B*51:01 [14] = test: as above; conditions: source organism: Zaire ebolavirus
HLA-B*15:17 = test: as above; conditions: source organism: Zaire ebolavirus
HLA-A*69:01 = test: as above; conditions: source organism: Zaire ebolavirus
HLA-A*26:01 = test: as above; conditions: source organism: Zaire ebolavirus
HLA-A*02:01 [15] = test: as above; conditions: source organism: Zaire ebolavirus
HLA-B*15:01 [16] = test: as above; conditions: source organism: Zaire ebolavirus
HLA-B*46:01 [17] = test: as above; conditions: source organism: Zaire ebolavirus
HLA-B*27:03 = test: as above; conditions: source organism: Zaire ebolavirus
HLA-B*39:01 [18] = test: as above; conditions: source organism: Zaire ebolavirus
HLA-B*18:01 [19] = test: IEDB peptide-MHC binding, purified MHC/direct/fluorescence; filed as Kd, often an IC50 or EC50 that approximates it; ≥ and ≤ were set here for values at or beyond the usual limits of such assays; conditions: source organism: Ebola virus - Gabon (1994-1997)
HLA-B*40:01 [20] = test: as above; conditions: source organism: Ebola virus - Gabon (1994-1997)
HLA-B*27:05 = test: as above; conditions: source organism: Ebola virus - Gabon (1994-1997)
HLA-B*15:01 [21] = test: as above; conditions: source organism: Ebola virus - Gabon (1994-1997)
HLA-B*57:01 = test: as above; conditions: source organism: Ebola virus - Gabon (1994-1997)
HLA-B*44:02 [22] = test: as above; conditions: source organism: Ebola virus - Gabon (1994-1997)
HLA-A*31:01 = test: as above; conditions: source organism: Ebola virus - Gabon (1994-1997)
HLA-A*01:01 = test: as above; conditions: source organism: Ebola virus - Gabon (1994-1997)
HLA-A*11:01 = test: as above; conditions: source organism: Ebola virus - Gabon (1994-1997)
HLA-B*46:01 [23] = test: as above; conditions: source organism: Ebola virus - Gabon (1994-1997)
[24] = source organism: Zaire ebolavirus
[25] = source organism: Ebola virus - Gabon (1994-1997)

Work on FVTLDGQQF yielded an IC50 (HLA-A*24:02) of 17.6 µM, an IC50 (HLA-A*02:01 [1]) of no less than 121 µM and an IC50 (HLA-B*15:01 [2]; [24]) of 61.1 µM.

With GRLVTVNPF the Kd (HLA-B*48:01; source organism: West Nile virus) was no less than 20 µM.

Work on HHAVPNGTL yielded a Kd (HLA-B*39:01 [3]; source organism: Influenza A virus (A/kunke/1/71(H3N2))) of 0.0521 µM.

LASAILNAHE was tested, and the Kd (HLA-B*58:01 [4]; source organism: Dengue virus 4 Philippines/H241/1956) was 0.983 µM.

Work on LIVKTVLDH yielded an IC50 (HLA-B*15:01 [2]; [24]) of no less than 73.9 µM.

Sequence LPQRHHIML has a Kd (HLA-B*51:01 [5]) of no less than 20 µM and a Kd (HLA-B*07:02; source organism: Escherichia coli O157:H7) of 0.0015 µM.

In the case of MAAILAYTI, the Kd (HLA-B*51:01 [6]) is reported as 0.0101 µM, the Kd (HLA-A*68:02 [7]) is reported as 0.00473 µM and the Kd (HLA-B*58:01 [4]; source organism: Dengue virus 2 Jamaica/1409/1983) is reported as 0.00126 µM. The Kd (HLA-B*35:01) was 1.73 µM and the Kd (HLA-B*53:01) was 0.0132 µM.

Sequence PPIPIWLLF has a Kd (HLA-A*29:02) of 0.197 µM.

For RTIHHASAP, the IC50 (HLA-A*02:01 [1]) was no less than 622 µM and the IC50 (HLA-B*15:01 [2]; [24]) was 36.4 µM.

In the case of SYFTNMFATWSP, the IC50 (HLA-B*15:01 [2]; source organism: Homo sapiens) is reported as 5.8 µM.

Sequence VEYYPLLFIT has a Kd (HLA-B*18:01 [8]) of 8.28 µM, a Kd (HLA-B*40:01 [9]) of 5.12 µM and a Kd (HLA-B*44:02 [10]) of no less than 62 µM. For the same sequence, the Kd (HLA-B*45:01) was 0.568 µM, the Kd (HLA-B*40:02) was 0.0126 µM and the Kd (HLA-B*44:03) was 8.31 µM.

For WLQKIPLQW, the Kd (HLA-A*02:11) was no less than 20 µM, the Kd (HLA-A*68:02 [11]) was no less than 20 µM and the Kd (HLA-A*02:19) was no less than 20 µM. For the same sequence, the Kd (HLA-B*58:01 [12]; source organism: Ebola virus - Eckron (Zaire, 1976)) was 0.693 µM, the Kd (HLA-A*02:16) was no less than 20 µM and the Kd (HLA-A*02:12) was no less than 20 µM. The Kd (HLA-A*03:01; [24]) was no less than 20 µM, the Kd (HLA-A*02:03) was no less than 20 µM and the Kd (HLA-B*18:01 [13]) was no less than 20 µM. The Kd (HLA-B*51:01 [14]) was no less than 20 µM, the Kd (HLA-B*15:17) was no less than 20 µM and the Kd (HLA-A*69:01) was no less than 20 µM. It also gave a Kd (HLA-A*26:01) of no less than 20 µM, a Kd (HLA-A*02:01 [15]) of no less than 20 µM and a Kd (HLA-B*15:01 [16]) of no less than 20 µM. For the same sequence, the Kd (HLA-B*46:01 [17]) was no less than 20 µM, the Kd (HLA-B*27:03) was no less than 20 µM and the Kd (HLA-B*39:01 [18]) was no less than 20 µM.

For WMASVEPHW, the Kd (HLA-B*58:01 [4]; source organism: Dengue virus 1 Brazil/97-11/1997) was 0.0133 µM.

YFTFDLTAL showed a Kd (HLA-B*18:01 [19]) of no less than 20 µM, a Kd (HLA-A*02:11) of no less than 20 µM and a Kd (HLA-B*48:01; [25]) of no less than 20 µM. The Kd (HLA-A*02:19) was no less than 20 µM, the Kd (HLA-B*40:01 [20]) was no less than 20 µM and the Kd (HLA-B*58:01 [12]; [25]) was no less than 20 µM. For the same sequence, the Kd (HLA-B*27:05) was no less than 20 µM, the Kd (HLA-B*15:01 [21]) was no less than 20 µM and the Kd (HLA-B*57:01) was no less than 20 µM. It also gave a Kd (HLA-A*02:16) of no less than 20 µM, a Kd (HLA-B*44:02 [22]) of no less than 20 µM and a Kd (HLA-A*31:01) of no less than 20 µM. For the same sequence, the Kd (HLA-A*02:12) was no less than 20 µM, the Kd (HLA-A*01:01) was no less than 20 µM and the Kd (HLA-A*11:01) was no less than 20 µM. The Kd (HLA-A*03:01; [25]) was no less than 20 µM, the Kd (HLA-B*46:01 [23]) was no less than 20 µM and the Kd (HLA-A*02:03) was no less than 20 µM. It also gave a Kd (HLA-B*39:01 [3]; [25]) of no less than 20 µM, a Kd (HLA-B*07:02; [25]) of no less than 20 µM and a Kd (HLA-B*51:01 [14]) of no less than 20 µM. The Kd (HLA-B*15:17) was no less than 20 µM, the Kd (HLA-A*69:01) was no less than 20 µM and the Kd (HLA-A*26:01) was no less than 20 µM. The Kd (HLA-A*02:01 [15]) was no less than 20 µM and the Kd (HLA-B*27:03) was no less than 20 µM.
